Data from the supplement of paper PMC12764529.
± gives the half width of the 95% confidence interval.

Experiments:
[1] = folding stability dG unfold from trypsin proteolysis; higher = more stable
How it was run: (§1)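 Bayesian fitting of sequencing counts gave K50 for each design. Unfolding free energy followed by setting this against a sequence-predicted unfolded-state K50 and a shared folded-state K50, either per protease or with trypsin and chymotrypsin combined. The designs, under 80 residues and lacking cysteine, were digested in a PA-tagged cDNA display format at 11 threefold-diluted protease concentrations and without protease, and only those with AlphaFold2 dimer inter-PAE above 15 were kept.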

[2] = folding stability dG unfold from chymotrypsin proteolysis; higher = more stable
How it was run: as §1

[3] = folding stability dG unfold (combined trypsin and chymotrypsin); higher = more stable
How it was run: as §1

Row | Sequence | folding stability dG unfold [1] [kcal/mol] | folding stability dG unfold [2] [kcal/mol] | folding stability dG unfold [3] [kcal/mol]
1 | SAGGSAGGMARVLRVEPAEGDDTFYVEVEFYDPATGEVTLGRFRIPADRPDLATNIPADSWVVLSAGGSAGG [r6_978_TrMRF] | 0.66 ± 0.04 | 1.56 ± 0.059 | 1.25 ± 0.046
2 | SAGGSAGGMEIRIEKDENGFLRLKVINKKTKKETEIEIPVEDEDALKKLLDAGVERVEIEPLPPSAGGSAGG [r6_639_TrROS_Hall] | 0.399 ± 0.13 | 1.34 ± 0.08 | 1.14 ± 0.21
3 | SAGGSAGGMEKYKVTITIERPDPNNPDVKTTEVTEVVLTPEEIEKLKKELAPTGYRVEITVIDESAGGSAGG [r6_857_JUSTAS] | 2.6 ± 0.14 | 2.51 ± 0.086 | 2.45 ± 0.15
4 | SAGGSAGGMEVPPDQRVLVLDVEGTPEAIEAFAEELVRRGFDKPVAVVAVDPETGKVTIVVPEDSAGGSAGG [r6_652_TrMRF] | 0.771 ± 0.05 | 1.06 ± 0.1 | 1.08 ± 0.11
5 | SAGGSAGGMFYVVRLEGPDGPLRTLVRPAESLEEARAFAEALAPEGARVTVEPLEEEEAERLLGSAGGSAGG [r6_267_TrMRF] | 1.07 ± 0.057 | 2.54 ± 0.053 | 2.13 ± 0.065
6 | SAGGSAGGMHINAPGSIEELEEKLGGPIAEATLEGPGTFTLTLENGVPITVSFDDPEQLEELIESAGGSAGG [r6_13_TrMRF] | 0.524 ± 0.059 | 0.243 ± 0.16 | 0.387 ± 0.18
7 | SAGGSAGGMIEVESFPEIGYILVKAKSEKPEEIAKEVLEKFNVKEAVVFEDPEKPYVYILAKIDSAGGSAGG [r6_661_TrMRF] | 0.97 ± 0.088 | 1.26 ± 0.21 | 1.13 ± 0.21
8 | SAGGSAGGMILLETEEGEPKAVILFELRDPLFGGEIPLEFLEELAEEIKEKFPEIKHIELIGLPSAGGSAGG [r6_793_TrMRF] | 1.47 ± 0.047 | 1.1 ± 0.03 | 1.31 ± 0.08
9 | SAGGSAGGMIPVKTTETTTLPDGSTVVTESLTIIDPTSNTSTTTTLKTTIINTSTGTTIPPSSLSAGGSAGG [r6_866_JUSTAS] | 1.38 ± 0.032 | 0.319 ± 0.073 | 1 ± 0.079
10 | SAGGSAGGMIVLPPGATVDFDPSVARLTVTVKDPNSDKSTTTTYDVPPTATVTSAPGTIVVNVPSAGGSAGG [r6_804_JUSTAS] | -0.656 ± 0.14 | 0.476 ± 0.11 | 0.171 ± 0.073
11 | SAGGSAGGMKEGEEFEIELPDKYKVKIRVKDNIIEVEFPPGLRVRAEILENGEVKVYLPPELKPSAGGSAGG [r6_970_TrMRF] | 2.04 ± 0.087 | 1.42 ± 0.048 | 1.7 ± 0.21
12 | SAGGSAGGMKIEPIAEDEDYIVVRVEPDLPELLEELGLEVVGVEEEGDYVIVVVKVPPEVREKFSAGGSAGG [r6_108_TrMRF] | 0.649 ± 0.022 | -0.0352 ± 0.11 | 0.336 ± 0.11
13 | SAGGSAGGMKIKVKFTITKSDPNSDSPVPRVITKEFESLEEAEKEFNKLKNLPSGYTVEVEIVESAGGSAGG [r7_0_JUSTAS] | 3.16 ± 0.11 | 3.82 ± 0.043 | 3.62 ± 0.1
14 | SAGGSAGGMKTITIELPPGPVRIRVRLAATGEEVTVEVDAETPTVTITIPEEGAEIVEIEIEPVSAGGSAGG [r6_977_TrROS_Hall] | 2.06 ± 0.065 | 2.66 ± 0.13 | 2.59 ± 0.18
15 | SAGGSAGGMKTTTYTFPGTLEEAKALAEELVAALPPHAKEVTVEVTPDPATGTVTVTITVKELASAGGSAGG [r6_164_JUSTAS] | 3.17 ± 0.19 | 3.63 ± 0.064 | 3.46 ± 0.13
16 | SAGGSAGGMKTVTTPVYAVMPEEEAEALAKELEEKYPNVEIEVEREELPDGRVRVTITVTKPLGSAGGSAGG [r6_105_JUSTAS] | 1.19 ± 0.022 | 1.55 ± 0.054 | 1.4 ± 0.067
17 | SAGGSAGGMKVEVVFLVPGEVFSKFTPPLSEDDPVLLVLVFDVPAPPPVPRYVYDPETGEWRPESAGGSAGG [r6_211_TrMRF] | 2.39 ± 0.047 | 3.72 ± 0.099 | 3.22 ± 0.11
18 | SAGGSAGGMKVIEIDLPDGSKLKIVIYKDGTLPAYLPEGNKVIVLEIDKNGKIKSVKVFDAKDISAGGSAGG [r6_81_TrMRF] | 2.87 ± 0.16 | 3.52 ± 0.072 | 3.21 ± 0.25
19 | SAGGSAGGMKVKIKLGPGEEVEIEVVEDKETNKLYFKIVNKKTKKVYVFETLEEAKNMSLEELLSAGGSAGG [r6_739_TrROS_Hall] | 1.78 ± 0.065 | 3.73 ± 0.07 | 3.22 ± 0.12
20 | SAGGSAGGMKVLATTEDGEVYLFDLSEFDLSFEEWLNLGEEELAELLRKAFPEKEITLELVEEPSAGGSAGG [r6_164_TrMRF] | 2.5 ± 0.076 | 3.3 ± 0.047 | 3.02 ± 0.077
21 | SAGGSAGGMKVRVKIEVEGKTLEIEIEVPEEKREEALEKAKKLAEKLAEELDVEVKIVEVEEEPSAGGSAGG [r6_459_TrROS_Hall] | 1.04 ± 0.034 | 2.41 ± 0.073 | 2.01 ± 0.12

Row | Sequence | folding stability dG unfold [1] [kcal/mol] | folding stability dG unfold [2] [kcal/mol] | folding stability dG unfold [3] [kcal/mol]
22 | SAGGSAGGMKVYEIEVPPSSGLTPEEIRARVREEIEASNNAPVEVTVEVDPNGRLTVTIKITPLSAGGSAGG [r6_819_JUSTAS] | 1.83 ± 0.036 | 1.28 ± 0.054 | 1.49 ± 0.13
23 | SAGGSAGGMKYLDVVLHPDTGATYSSLEEIKASSSGPFQIKTGDGKWIYLPVEELSSLPTPLASSAGGSAGG [r6_685_JUSTAS] | 0.0571 ± 0.039 | 0.331 ± 0.048 | 0.247 ± 0.065
24 | SAGGSAGGMLLSSEEELEEELKRVREEGIGEVEVQVVDEKGNIHTLPTFVENPGPEPLPNEKLLSAGGSAGG [r6_258_JUSTAS] | 0.558 ± 0.066 | 0.643 ± 0.049 | 0.628 ± 0.13
25 | SAGGSAGGMLRVRVETTLPGSGETLDLELEFPSEEEARRAIEALVPPEERAEVRVEFLPPGVPESAGGSAGG [r6_657_JUSTAS] | -0.156 ± 0.37 | 1.44 ± 0.08 | 1.06 ± 0.1
26 | SAGGSAGGMLTFTFSLSEIPPYPSGSLSLEEVKKRMEPILRKLLGRKDVKIKVESLPDGTIRVTVESAGGSA [r15_562_JUSTAS] | 3.95 ± 0.25 | 4.99 ± 0.23 | 4.37 ± 0.27
27 | SAGGSAGGMPAEWLDEIEAPPGNYRAELYKTEKEVRIIITLPNGEKLELTFEVKPDEEILVLPGSAGGSAGG [r6_379_TrMRF] | 1.89 ± 0.057 | 2.12 ± 0.17 | 2.05 ± 0.097
28 | SAGGSAGGMPVEVTETPVGTFPDGSTVTRTETVLPGGEVLVETTVTYPDGSSTTTTRRVPPELASAGGSAGG [r6_263_JUSTAS] | 2.39 ± 0.084 | 2.41 ± 0.059 | 2.43 ± 0.092
29 | SAGGSAGGMTAVEVKEETVPITLTSSFFPGGVPVPGAAVSTITITTTTTIEPPTGKTVKVTVAGSAGGSAGG [r6_424_JUSTAS] | -0.318 ± 0.037 | -0.658 ± 0.12 | -0.423 ± 0.074
30 | SAGGSAGGMTFTIPPGKPVTIRVYNRNGELIEEVTVTGAGARIHVSEIPGTGELKITRIDEIPPSAGGSAGG [r6_523_TrMRF] | 2.33 ± 0.049 | 2.91 ± 0.071 | 2.72 ± 0.087
31 | SAGGSAGGMTLKIKVAPGAVIRIYNKDGELIEEIEVEEGEEVEIEIELPEEDLENLRIEILPAPSAGGSAGG [r6_471_TrROS_Hall] | 3.96 ± 0.27 | 4.6 ± 0.079 | 4.42 ± 0.25
32 | SAGGSAGGMTLTLELTLENGKKVRIEVEVNENGSLKVKITYPNGKKVEIEVNMSLEELLKKLLSSAGGSAGG [r6_808_TrROS_Hall] | 3.75 ± 0.26 | 3.66 ± 0.14 | 3.91 ± 0.29
33 | SAGGSAGGMTTTEISTKKLPDGTWATTVTTTTITATNGVPVTTSTPTTIINPGDPSVAIAAALSSAGGSAGG [r6_129_JUSTAS] | 0.209 ± 0.013 | -1 ± 0.29 | -0.173 ± 0.057
34 | SAGGSAGGMTVTTTSSFDPTSPTANTLTTTYVSPEELKRPEIQALPDLPGKTLEFPTTTPVPPPSAGGSAGG [r6_768_JUSTAS] | 0.679 ± 0.031 | 0.0452 ± 0.048 | 0.431 ± 0.085
35 | SAGGSAGGMVETKLVESEELPGNRRVLTYRVTEPDSLYRVTVELTLDPSGTVLSSKTTTEPIPLSAGGSAGG [r6_20_JUSTAS] | 0.846 ± 0.053 | 1.12 ± 0.093 | 1.04 ± 0.073
36 | SAGGSAGGMVIEGRIKIVSPDGGEKEIPVVLFIPESFPDANLEELAEAIAKEILPPGYKADFEGSAGGSAGG [r6_821_TrMRF] | 0.601 ± 0.065 | 1 ± 0.023 | 0.879 ± 0.17
37 | SAGGSAGGMVIKIITNAPSLEEAEEIAKRVAAELRERFGGPDVEIVLDVEVIPLPPVPTEDGKPSAGGSAGG [r6_182_TrMRF] | 1.38 ± 0.053 | 1.97 ± 0.16 | 1.82 ± 0.092
38 | SAGGSAGGMVISLPNNYKIKLGITDAEFDEVKVYTGPNGPKKLVSGANIKLKIGISIYKSNDNSSAGGSAGG [r6_585_TrMRF] | 1.24 ± 0.036 | 1.43 ± 0.19 | 1.4 ± 0.17
39 | SAGGSAGGMVKVSSDPATGKVYVTYPGADPEAVAEKVKKEYGAKKIKVEKDPNKDVTTITITVESAGGSAGG [r6_662_JUSTAS] | -1.01 ± 0.45 | 0.271 ± 0.14 | -0.0511 ± 0.19
40 | SAGGSAGGMVLRITLPNGEVIEIPLEELGLSEEERKRRLAELLAEELRKLFPGKEIKVEVVELPSAGGSAGG [r6_164_TrROS_Hall] | 3.54 ± 0.08 | 4 ± 0.057 | 3.83 ± 0.14
41 | SAGGSAGGMVRFDPAGGRLFLDGVPVELSEVLSVESLEEEGRVRVEALLVDGSRLEFEIPKEALSAGGSAGG [r6_682_JUSTAS] | 1.73 ± 0.036 | 2.323 ± 0.021 | 2.13 ± 0.029
42 | SAGGSAGGMVTIASITFEEDPEGGITVTVYLPSNGKTITVPVPADTPEAEARARAEAAARAYAASAGGSAGG [r6_628_JUSTAS] | 0.894 ± 0.028 | 1.49 ± 0.098 | 1.28 ± 0.15
